Assay results: patent US20250215467A1, “L-THREONINE TRANSALDOLASES AND USES THEREOF” (University of Delaware, priority 2022, published 2025)

Experiments:
[1] = TTA-ADH coupled assay, screen of purified TTAs on 2-nitro-benzaldehyde; format: biochemical; settings: substrate 3, TTA-ADH coupled assay
Protocol: (§1) High-throughput screening of purified TTAs was performed with a TTA-ADH coupled assay using purified TTA and commercially available alcohol dehydrogenase from S. cerevisiae purchased from MilliporeSigma. Aldehyde stocks were prepared in 50-100 mM solutions in DMSO or acetonitrile. Reaction mixtures were prepared in a 96-well plate with 100 μL of 100 mM phosphate buffer pH 7.5, 0.5 mM NADH, 0.4 mM PLP, 15 mM MgCl2, and 100 mM L-Thr with the addition of 0.25 mM to 1 mM aldehyde depending on the background absorbance at 340 nm (Table 4), 10 U ScADH, and 0.25 μM purified TTA unless otherwise specified. Reactions were initiated with the addition of enzyme. […] The following controls were included for every assay: reaction mixture without aldehyde, without TTA, and without enzyme (TTA or ADH). Rates were calculated by identifying the linear region at the beginning of the kinetic run and converting the depletion in absorbance to the depletion of mM NADH using an NADH standard curve.
Once purified, we identified the putative TTAs with high activity and further characterized them for their L-Thr affinity and substrate scope. We first screened each purified enzyme using the TTA-ADH coupled assay with 2-nitro-benzaldehyde, 3, the best performing substrate from the screen of ObiH that was not a substrate of the ScADH. […] With this evidence as well as well-aligned, predicted AlphaFold structures, we assumed the impact of the SUMO tag would be minimal for all TTAs screened and moved forward with additional enzyme characterization.

[2] = TTA-ADH coupled assay, substrate scope of TTAs on aromatic aldehydes; format: biochemical
Protocol: as §1
We specifically selected substrates with ring substituents with different electron withdrawing properties (1, 3, 6, 7, 8), substituent size (12), and aldehyde chain length (15) to compare the activity of the putative TTAs to ObiH. We were also encouraged by the activity of PbTTA and KaTTA on vanillin and protocatechualdehyde which are substrates that would form products like commercially available therapeutic, Droxidopa (FIG. 18).
To explore the possibility that DbTTA and TmTTA are TTAs active on other related aldehydes, we sought to examine their activity with L-Thr and aldehyde substrates with different ring substituent position (2), bulkier, hydrophobic chemistry (10), and aldehyde chain length (14) using the TTA-ADH coupled assay.

[3] = In vitro assay over 20 h with HPLC analysis (amino acid substrate specificity, diastereomeric excess); format: biochemical; settings: 3 as aldehyde substrate
Protocol: (§2) Metabolites of interest were quantified via high-performance liquid chromatography (HPLC) using an Agilent 1260 Infinity model equipped with a Zorbax Eclipse Plus-C18 column. To quantify aldehyde and β-OH-nsAAs, an initial mobile phase of solvent A/B=95/5 was used (solvent A, water+0.1% TFA; solvent B, acetonitrile+0.1% TFA) and maintained for 5 min. A gradient elution was performed (A/B) as follows: gradient from 95/5 to 50/50 for 5-12 min, gradient from 50/50 to 0/100 for 12-13 min, and gradient from 0/100 to 95/5 for 13-14 min. A flow rate of 1 mL min-1 was maintained, and absorption was monitored at 210, 250 and 280 nm.
We performed an in vitro assay over 20 h using 3 as the aldehyde substrate and either L-Thr, Glycine (Gly), or L-Serine (L-Ser) as the candidate amino acid. Since the TTA-ADH coupled assay is specific to L-Thr, we analyzed TTA activity via HPLC with a chemically synthesized β-OH-nsAA standard for the assumed product from 3.

E. coli RARE strain = assay: β-OH-nsAA biosynthesis during aerobic fermentation in E. coli RARE strain; format: cell-based, Escherichia coli; settings: 1 mM 3, 20 h
Protocol: as §2
For screening TTA activity in aerobically growing cells, we inoculated strains transformed with plasmids expressing TTAs into 300 μL volumes of MOPS EZ Rich media in a 96-deep-well plate with appropriate antibiotic added to maintain plasmids (50 μg/mL kanamycin (Kan)). Cultures were incubated at 37° C. with shaking at 1000 RPM and an orbital radius of 1.25 mm until an OD600 of 0.5-0.8 was reached. OD600 was measured using a SPECTRAMAX® i3× plate reader. At this point, the TTAs were induced with addition of 0.2 nM aTc for TTA expression. Then, 2 h following induction of the TTAs, 1 mM aldehyde was added to the culture. Cultures were then incubated over 20 h at 30° C. with metabolite concentration measured via supernatant sampling and submission to HPLC. […]

[4] = In vitro CAR-TTA coupled assay with HPLC analysis; format: biochemical; settings: CAR plus 2 μM PbTTA, 100 mM L-Thr, 20 h
Protocol: In vitro CAR activity assays were performed as previously reported (Gopal et al. biorxiv, 2022) using 2 mM NADPH and 2 mM ATP, 20 mM MgCl2, and 0.75 μM CAR and E. coli pyrophosphatase. For in vitro coupling with the CAR and TTA, the same in vitro CAR assay was performed with the addition of 2 μM TTA, 0.4 mM PLP, and 100 mM L-Thr; however, rather than monitoring the reaction with the plate reader, the plate was left shaking at 1000 RPM with an orbital radius of 1.25 mm at 30° C. overnight. The reaction was then quenched after 20 h with 100 μL of 3:1 methanol:2 M HCl. The supernatant was then separated from the protein precipitate using centrifugation and analyzed via HPLC.
as §2, with “nm. […]” for “nm.”

B1: PbTTA: L-threonine transaldolase, SEQ ID NO: 16, Parachlamydiales bacterium, MBN2478762.1 (protein, listed as Parachlamydiales bacterium)
chain: METSLKDFETILHLINKEEIDSNDTIHMTANENIMSKLSKHYLKSTLSYRYHVGMFDDQKNLTVSRSCLIKNSLMLRCLSPIFLLEQQAREYVKKMFFAEYADFRPLSGMHTVFCILSTLTKPNDRVYVFTTESVGHAATVSLLKSLGRKVSFIPFCEKKLDIDLEKLSKQILIEKPNAILFDFGTPFYPLPIREIREIVGNDVKMIYDASHVLGLIAGGQFQNPLLEGCDVLIGNTHKTFPGPQKGMILYKNKSLGKEIATEIFKSAISAQHTHHAIALYVTIIEMYIHGKEYANQIIKNNHALSQALINEGFKIFKRKNQFSLSHMIAITGDFPIDHHVACADLHNSNISTNSRILYDFPAVRIGVQEVTRKGMKEKDMVQLAKFFKEIILDRKNISSKIKEFNNKFNSIEYSLDEIYEKLF
[1]
  activity on 2-nitro-benzaldehyde relative to ObiH: comparable to or better than ObiH
[2]; TTA-ADH coupled assay
  activity on vanillin and protocatechualdehyde: activity
[2]; substrates 1, 3, 6, 7, 8, 12, 15
  activity on a set of aromatic aldehyde substrates (substrate scope): high activity on a diverse array of substrates
[3]
  β-OH-nsAA formation using L-Ser or Gly: no β-OH-nsAA formation
E. coli RARE strain; 100 mM L-Thr
  β-OH-nsAA titer: 0.61 ± 0.04 mM
E. coli RARE strain; natural L-Thr levels
  β-OH-nsAA titer: 0.13 ± 0.01 mM
[4]
  β-OH-nsAA production from 4-azido-benzoic acid, in vitro CAR-TTA coupling: successfully produced a β-OH-nsAA product
